Target: native H3 (human (endogenous in HeLa)) (UniProt P68431)
Assay: co-IP; native (unfixed) ChIP on mono-nucleosomes: native CpA from untransfected HeLa, GFP-CpA and HA-CpA from transfected HeLa, Western for H1.5 (three antibodies) and H2A; H3 ChIP done sequentially after the native CpA ChIP

fold affinity against native CpA: 13 fold
Substance: linker histone H1.5 (from UniProt P16401 1-226) (natural protein)
